5 molecules from patent CN112552406A (WUJIANG NOVOPROTEIN SCIENT INC, dated 2021) can be followed below.

As usually defined, the EC50 is the midpoint of the concentration-response curve. Usually Kd stands for the constant that tells how readily two partners part at equilibrium.

Where a chain is given by its changes, count along the chain named.

For assay [1], the target named is T1, 人CD73 on SK-OV-3细胞 (人卵巢腺癌细胞) (human, UniProt P21589 27-549).
T1 construct: whole, on cells; CD73-positive human cell line; also called SK-OV-3细胞上CD73; 人CD73阳性细胞
T1 sequence (looked up): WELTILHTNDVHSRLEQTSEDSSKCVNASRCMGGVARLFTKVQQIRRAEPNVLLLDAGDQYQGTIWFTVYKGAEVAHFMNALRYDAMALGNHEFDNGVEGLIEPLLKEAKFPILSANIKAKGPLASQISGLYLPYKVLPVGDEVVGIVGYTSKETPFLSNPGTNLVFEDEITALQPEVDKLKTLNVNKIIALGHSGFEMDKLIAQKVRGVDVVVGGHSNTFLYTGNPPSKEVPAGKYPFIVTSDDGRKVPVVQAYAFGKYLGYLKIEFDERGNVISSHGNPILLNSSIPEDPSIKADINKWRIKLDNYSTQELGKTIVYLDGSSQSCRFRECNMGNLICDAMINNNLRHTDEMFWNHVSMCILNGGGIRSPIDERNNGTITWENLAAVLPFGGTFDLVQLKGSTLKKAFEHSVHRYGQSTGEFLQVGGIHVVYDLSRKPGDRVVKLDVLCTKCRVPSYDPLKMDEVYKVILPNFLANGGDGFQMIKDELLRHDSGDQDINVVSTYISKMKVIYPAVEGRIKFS
The assay can be described thus: flow cytometry on SK-OV-3 cells. For orientation: A flow cytometer gives signals particle by particle.

For assay [2], the target named is T2, 猴CD73全长 on CHOK1-cynoCD73细胞 (猴 (cyno), UniProt A0A2K5V5U7 27-549).
T2 construct: whole, on cells; also called 猴CD73阳性细胞
T2 sequence: T1 sequence (looked up) with M199T, T350A, V466I
Description: flow cytometry on CHOK1-cynoCD73 cells, Anti-hFC-APC detection.

Assay [3] has as its target T1, 人CD73 on SK-OV-3细胞 (人卵巢腺癌细胞). The assay can be described thus: flow cytometry on SK-OV-3 cells, Anti-hFC-APC detection.
Assay [4] shares this target. Description: cell-based or functional assay.
Assay [5] concerns the target T2, 猴CD73全长 on CHOK1-cynoCD73细胞. Description: cell-based or functional assay.
The target in another assay is T3, 重组猴CD73蛋白 (猴 (monkey; cyno per the cell line name), UniProt A0A2K5V5U7 27-547).
T3 sequence: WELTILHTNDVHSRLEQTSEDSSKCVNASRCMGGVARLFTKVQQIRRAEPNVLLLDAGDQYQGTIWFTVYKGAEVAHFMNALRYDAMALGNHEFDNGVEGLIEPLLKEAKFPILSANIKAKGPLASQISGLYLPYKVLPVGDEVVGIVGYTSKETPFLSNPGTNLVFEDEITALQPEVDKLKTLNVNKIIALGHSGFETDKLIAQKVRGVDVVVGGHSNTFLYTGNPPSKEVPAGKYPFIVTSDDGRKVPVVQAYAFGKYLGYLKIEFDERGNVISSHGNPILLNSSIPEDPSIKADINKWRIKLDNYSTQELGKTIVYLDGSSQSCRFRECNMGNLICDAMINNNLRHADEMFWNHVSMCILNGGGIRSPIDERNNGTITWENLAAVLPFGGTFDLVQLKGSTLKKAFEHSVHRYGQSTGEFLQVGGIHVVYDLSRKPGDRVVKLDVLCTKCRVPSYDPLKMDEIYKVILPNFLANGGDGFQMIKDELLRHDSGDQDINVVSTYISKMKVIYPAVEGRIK
The assay can be described thus: ELISA, recombinant monkey CD73 coated at 3μg/ml.

The next assay concerns the target T4, 重组人CD73蛋白 (human, UniProt P21589 27-547).
T4 construct: also called rhCD73; 重组hCD73蛋白
T4 sequence (looked up): T3 sequence with T199M, A350T, I466V
The assay can be described thus: Biacore (SPR), CQ137 immobilised, CD73 protein 2.5nM-40nM. A general note: In SPR one partner is held on a chip, and binding of the other changes the refractive index at the surface.

B1: 人源化CQ137单抗(137-2) (antibody, V domains shown)
VH: QVQLVQSGAEVKKPGASVKVSCKASGYSFTGYYIHWVRQAPGQGLEWMGRINPYNGATTYNQNFKDRVTMTVDKSTSTAYMELRSLRSDDTAVYYCARFHYGAPDYWGQGTLVTVSS
VL: DIQMTQSPSSLSASVGDRVTITCKASQDINTYLTWFQQKPGKAPKSLIYRANILVDGVPSRFSGSGSGTDFTLTISSLQPEDFATYYCLQYDEFPLTFGGGTKVEIKR
notes: also called hCQ137
As for B1, the binding result in assay [1] is on record as “binds”.

B2: 人源化CQ137单抗(137-3) (antibody, V domains shown)
VH: B1 VH with A16S, M70I, R84S, D89E
VL: B1 VL with F36Y, S46T
notes: also called hCQ137
On to B2, for which the binding result in assay [1] is reported as “binds”.

B3: 人源化CQ137单抗(137-1) (antibody, V domains shown)
VH: B1 VH with S28T
VL: B1 VL with S46T, T69Q, F71Y
notes: also called hCQ137
For the molecule B3, the binding result in assay [1] was “binds”.

B4: MEDI-9447 (antibody, V domains shown)
VH: EVQLLESGGGLVQPGGSLRLSCAASGFTFSSYAYSWVRQAPGKGLEWVSAISGSGGRTYYADSVKGRFTISRDNSKNTLYLQMNSLRAEDTAVYYCARLGYGRVDEWGRGTLVTVSS
VL: QSVLTQPPSASGTPGQRVTISCSGSLSNIGRNPVNWYQQLPGTAPKLLIYLDNLRLSGVPDRFSGSKSGTSASLAISGLQSEDEADYYCATWDDSHPGWTFGGGTKLTVLG
On to B4, for which the EC50 came out at 4.12 ng/mL in assay [2] and 9.63 ng/mL in assay [3].

B5: CQ137抗体蛋白 (人鼠嵌合的抗CD73全长抗体) (antibody, human IgG1, kappa, V domains shown)
VH: EVQLQQSGPELVKPGASVKISCKASGYSFTGYYIHWVKQSHVKSLEWIGRINPYNGATTYNQNFKDKASLTVDKSSSTAYMELHSLTSEDSAVYYCARFHYGAPDYWGQGTTLTVSS
VL: DILMTQSPSSMYASLGERVTITCKASQDINTYLTWFQQKPGKSPKTLIYRANILVDGVPSRFSGSGSGQDYSLTISSLEFEDMGIYYCLQYDEFPLTFGAGTKLELKR
For the molecule B5, the EC50 in assay [2] was found to be 0.0999 ng/mL; with 重组猴CD73蛋白 it was 217 ng/mL; in assay [3], 0.588 ng/mL. The “IC50, SK-OV-3细胞上CD73酶活抑制 (CellTiter-Glo)” value in assay [4] turned out to be 371 ng/mL. In addition, the “IC50, CHOK1-cynoCD73细胞上CD73酶活抑制 (CellTiter-Glo)” value in assay [5] amounted to 990 ng/mL. The Kd with 重组人CD73蛋白 stood at 0.0865 nM.
